Positions count from the first letter of the chain named.
Experiments:
[1] = biological target: T1, recombinant human activated FVII (FVIIa) (human, UniProt P08709 61-212; P08709 213-466, ten glutamate residues of the Gla domain may be gamma-carboxylated); assay: dissociation constant listed with the stimulatory activities; method not given
T1 construct: Two-chain form after cleavage between Arg152 and Ile153; light and heavy chain tethered by a disulfide bond; also called rFVIIa; Factor VIIa
T1 sequence 1: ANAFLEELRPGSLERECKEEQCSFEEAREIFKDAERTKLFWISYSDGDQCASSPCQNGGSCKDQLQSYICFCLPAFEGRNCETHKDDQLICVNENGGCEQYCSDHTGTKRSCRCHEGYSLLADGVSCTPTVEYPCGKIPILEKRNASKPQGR
T1 sequence 2: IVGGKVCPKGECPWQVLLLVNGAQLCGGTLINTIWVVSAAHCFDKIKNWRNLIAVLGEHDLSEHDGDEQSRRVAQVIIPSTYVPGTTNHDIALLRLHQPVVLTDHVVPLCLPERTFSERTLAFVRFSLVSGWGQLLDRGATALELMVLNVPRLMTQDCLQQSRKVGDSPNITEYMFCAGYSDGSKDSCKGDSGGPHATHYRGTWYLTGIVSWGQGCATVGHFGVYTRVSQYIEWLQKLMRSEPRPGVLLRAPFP

[2] = biological target: T2, sTLT1 (SEQ ID No: 3 with six histidine residues added at the C-terminus) (human, UniProt Q86YW5 16-162); assay: dissociation constant listed with the stimulatory activities; value of the anti-TLT-1 arm
T2 construct: Soluble TLT-1 used in SPR
T2 sequence: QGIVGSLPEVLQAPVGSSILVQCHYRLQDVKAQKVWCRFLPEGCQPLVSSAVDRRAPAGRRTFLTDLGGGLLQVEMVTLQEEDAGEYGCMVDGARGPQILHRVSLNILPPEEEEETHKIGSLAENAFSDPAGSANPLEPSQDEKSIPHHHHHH

[3] = biological target: T1, recombinant human activated FVII (FVIIa); assay: cell-based or functional assay
[4] = biological target: T3, recombinant human activated Factor VII (FVIIa) (human, UniProt P08709 61-212; P08709 213-466, Gla domain: ten glutamate residues may be gamma-carboxylated); assay: SPR (Biacore T200), antibody captured on anti-murine IgG, FVIIa injected at 5-135 nM, 1:1 model
T3 construct: two-chain form after cleavage between Arg152 and Ile153; light chain (Gla, EGF domains) and heavy chain (protease domain) tethered by a disulfide bond; also called rFVIIa; human FVIIa
T3 sequence 1: T1 sequence 1
T3 sequence 2: T1 sequence 2
Description: Anti-murine IgG (by GE Healthcare) was immobilised on a CM4 sensor chip using standard amine coupling chemistry kit (both supplied by GE Healthcare). […] The running buffer was prepared by diluting 10-fold the 10×HBS-P buffer (supplied by GE Healthcare) and supplemented with 1 mg/ml BSA and 5 mM CaCl₂) to give 10 mM HEPES, 150 mM NaCl, 0.05% v/v Polysorbate 20(P20), pH 7.4, 5 mM CaCl₂), 1 mg/ml bovine serum albumin (BSA). […] Regeneration of the chip was achieved using regeneration buffer consisting of 10 mM Gly-HCl pH 1.7 (supplied by GE Healthcare). Binding data were analysed according to a 1:1 model using BiaEvaluation 4.1 supplied by the manufacturer (Biacore AB, Uppsala, Sweden).

[5] = biological target: T3, recombinant human activated Factor VII …; assay: cell-based or functional assay

B1: biAb0011 (bispecific antibody, human IgG4 S228P, kappa)
heavy 1: QVQLQESGPGLVEPSQTLSLTCTVSGYSITSDSAWSWIRQPPGKKLEWIGYIQYSGSTNYNPSLKSRVTISRDTSKNQFSLKLSSVTAADTAVYYCARSVNYYGNSFAVGYWGQGTLVTVSSASTKGPSVFPLAPCSRSTSESTAALGCLVKDYFPEPVTVSWNSGALTSGVHTFPAVLQSSGLYSLSSVVTVPSSSLGTKTYTCNVDHKPSNTKVDKRVESKYGPPCPPCPAPEFLGGPSVFLFPPKPKDTLMISRTPEVTCVVVDVSQEDPEVQFNWYVDGVEVHNAKTKPREEQFNSTYRVVSVLTVLHQDWLNGKEYKCKVSNKGLPSSIEKTISKAKGQPREPQVYTLPPSQEEMTKNQVSLTCLVKGFYPSDIAVEWESNGQPENNYKTTPPVLDSDGSFLLYSKLTVDKSRWQEGNVFSCSVMHEALHNHYTQKSLSLSLGK
light 1: EIVLTQSPATLSLSPGERATLSCRASQGVSDYLHWYQQKPGQAPRLLIKYASQPATGIPARFSGSGSGTDFTLTISSLEPEDFAVYYCQNGHSFPLTFGQGTKLEIKRTVAAPSVFIFPPSDEQLKSGTASVVCLLNNFYPREAKVQWKVDNALQSGNSQESVTEQDSKDSTYSLSSTLTLSKADYEKHKVYACEVTHQGLSSPVTKSFNRGEC
heavy 2: not shown
light 2: DIVMTQTPLSSPVTLGQPASISCRSSQSLVHRQGNTYFHWLQQRPGQPPRLLIYKVSNRFSGVPDRFSGSGAGTDFTLKISRVEAEDVGVYYCSQSTHVPYTFGQGTKLEIKRTVAAPSVFIFPPSDEQLKSGTASVVCLLNNFYPREAKVQWKVDNALQSGNSQESVTEQDSKDSTYSLSSTLTLSKADYEKHKVYACEVTHQGLSSPVTKSFNRGEC
notes: Duobody, constant domain type H (IgG4): anti-FVII(a) arm mAb0875, anti-TLT-1 arm mAb1076; also called mAb0875 x mAb1076
Kd [1]: 0.28 nM | Kd [2]: 2.9 nM | Stimulation (fold): FXa generated by FVIIa with lipidated TLT-1 and 100 nM biAb, relative to free FVIIa [3]: 20.3 fold

B2: biAb0098 (bispecific antibody, human IgG4 S228P, kappa)
heavy 1: B1 heavy 1 with Q1D, P41F, I49M, A89E, G110D, L117S
light 1: B1 light 1 with V29I, Q42E, A51T, F83V, A84G, Q100A, I106L
heavy 2: not shown
light 2: B1 light 2 with Q33N
notes: Duobody, constant domain type H (IgG4): anti-FVII(a) arm mAb0874, anti-TLT-1 arm mAb1047; also called mAb0874 x mAb1047
Kd [1]: 16.2 nM | Kd [2]: 75 nM | Stimulation (fold): FXa generated by FVIIa with lipidated TLT-1 and 100 nM biAb, relative to free FVIIa [3]: 15.3 fold

B3: biAb0097 (bispecific antibody, human IgG4 S228P, kappa)
heavy 1: DVQLQESGPGLVEPSQSLSLTCTVTGYSITSDSAWSWIRQFPGNKLEWMGYIQYSGSTNYNPSLKSRISVTRDTSKNQFFLRLSSVTAEDTATYYCTRSVNYYGNSFAVGYWGQGTSVTVSSASTKGPSVFPLAPCSRSTSESTAALGCLVKDYFPEPVTVSWNSGALTSGVHTFPAVLQSSGLYSLSSVVTVPSSSLGTKTYTCNVDHKPSNTKVDKRVESKYGPPCPPCPAPEFLGGPSVFLFPPKPKDTLMISRTPEVTCVVVDVSQEDPEVQFNWYVDGVEVHNAKTKPREEQFNSTYRVVSVLTVLHQDWLNGKEYKCKVSNKGLPSSIEKTISKAKGQPREPQVYTLPPSQEEMTKNQVSLTCLVKGFYPSDIAVEWESNGQPENNYKTTPPVLDSDGSFLLYSKLTVDKSRWQEGNVFSCSVMHEALHNHYTQKSLSLSLGK
light 1: B1 light 1 with V29I, Q42E, A51T, F83V, A84G, N90S, Q100A, I106L
heavy 2: not shown
light 2: B1 light 2 with Q33N
notes: Duobody, constant domain type H (IgG4): anti-FVII(a) arm mAb0872, anti-TLT-1 arm mAb1047; also called mAb0872 x mAb1047
Kd [1]: 2.2 nM | Kd [2]: 75 nM | Stimulation (fold): FXa generated by FVIIa with lipidated TLT-1 and 100 nM biAb, relative to free FVIIa [3]: 17.4 fold

B4: biAb0013 (bispecific antibody, human IgG4 S228P, kappa)
heavy 1: B1 heavy 1 with Q1D, P41F, I49M, A89E, G110D, L117S
light 1: B1 light 1 with V29I, Q42E, A51T, F83V, A84G, Q100A, I106L
heavy 2: not shown
light 2: B1 light 2
notes: Duobody, constant domain type H (IgG4): anti-FVII(a) arm mAb0874, anti-TLT-1 arm mAb1076; also called mAb0874 x mAb1076
Kd [1]: 16.2 nM | Kd [2]: 2.9 nM | Stimulation (fold): FXa generated by FVIIa with lipidated TLT-1 and 100 nM biAb, relative to free FVIIa [3]: 16 fold

B5: biAb0091 (bispecific antibody, human IgG4 S228P, kappa)
heavy 1: B1 heavy 1
light 1: B1 light 1
heavy 2: not shown
light 2: B1 light 2 with Q33N
notes: Duobody, constant domain type H (IgG4): anti-FVII(a) arm mAb0875, anti-TLT-1 arm mAb1049; also called mAb0875 x mAb1049
Kd [1]: 0.28 nM | Kd [2]: 320 nM | Stimulation (fold): FXa generated by FVIIa with lipidated TLT-1 and 100 nM biAb, relative to free FVIIa [3]: 11.3 fold

B6: biAb0012 (bispecific antibody, human IgG4 S228P, kappa)
heavy 1: B3 heavy 1
light 1: B1 light 1 with V29I, Q42E, A51T, F83V, A84G, N90S, Q100A, I106L
heavy 2: not shown
light 2: B1 light 2
notes: Duobody, constant domain type H (IgG4): anti-FVII(a) arm mAb0872, anti-TLT-1 arm mAb1076; also called mAb0872 x mAb1076
Kd [1]: 2.2 nM | Kd [2]: 2.9 nM | Stimulation (fold): FXa generated by FVIIa with lipidated TLT-1 and 100 nM biAb, relative to free FVIIa [3]: 22.1 fold

B7: biAb0016 (bispecific antibody, human IgG4 S228P, kappa)
heavy 1: B1 heavy 1
light 1: B1 light 1
heavy 2: not shown
light 2: B1 light 2 with Q33P
notes: Duobody, constant domain type H (IgG4): anti-FVII(a) arm mAb0875, anti-TLT-1 arm mAb1038; also called mAb0875 x mAb1038
Kd [1]: 0.28 nM | Kd [2]: 19 nM | Stimulation (fold): FXa generated by FVIIa with lipidated TLT-1 and 100 nM biAb, relative to free FVIIa [3]: 17.3 fold

B8: biAb0092 (bispecific antibody, human IgG4 S228P, kappa)
heavy 1: B3 heavy 1
light 1: B1 light 1 with V29I, Q42E, A51T, F83V, A84G, N90S, Q100A, I106L
heavy 2: not shown
light 2: B1 light 2 with Q33N
notes: Duobody, constant domain type H (IgG4): anti-FVII(a) arm mAb0872, anti-TLT-1 arm mAb1049; also called mAb0872 x mAb1049
Kd [1]: 2.2 nM | Kd [2]: 320 nM | Stimulation (fold): FXa generated by FVIIa with lipidated TLT-1 and 100 nM biAb, relative to free FVIIa [3]: 11.2 fold

B9: biAb0096 (bispecific antibody, human IgG4 S228P, kappa)
heavy 1: B1 heavy 1
light 1: B1 light 1
heavy 2: not shown
light 2: B1 light 2 with Q33N
notes: Duobody, constant domain type H (IgG4): anti-FVII(a) arm mAb0875, anti-TLT-1 arm mAb1047; also called mAb0875 x mAb1047
Kd [1]: 0.28 nM | Kd [2]: 75 nM | Stimulation (fold): FXa generated by FVIIa with lipidated TLT-1 and 100 nM biAb, relative to free FVIIa [3]: 12.4 fold

B10: biAb0018 (bispecific antibody, human IgG4 S228P, kappa)
heavy 1: B1 heavy 1 with Q1D, P41F, I49M, A89E, G110D, L117S
light 1: B1 light 1 with V29I, Q42E, A51T, F83V, A84G, Q100A, I106L
heavy 2: not shown
light 2: B1 light 2 with Q33P
notes: Duobody, constant domain type H (IgG4): anti-FVII(a) arm mAb0874, anti-TLT-1 arm mAb1038; also called mAb0874 x mAb1038
Kd [1]: 16.2 nM | Kd [2]: 19 nM | Stimulation (fold): FXa generated by FVIIa with lipidated TLT-1 and 100 nM biAb, relative to free FVIIa [3]: 12.8 fold

B11: biAb0017 (bispecific antibody, human IgG4 S228P, kappa)
heavy 1: B3 heavy 1
light 1: B1 light 1 with V29I, Q42E, A51T, F83V, A84G, N90S, Q100A, I106L
heavy 2: not shown
light 2: B1 light 2 with Q33P
notes: Duobody, constant domain type H (IgG4): anti-FVII(a) arm mAb0872, anti-TLT-1 arm mAb1038; also called mAb0872 x mAb1038
Kd [1]: 2.2 nM | Kd [2]: 19 nM | Stimulation (fold): FXa generated by FVIIa with lipidated TLT-1 and 100 nM biAb, relative to free FVIIa [3]: 13.6 fold

B12: biAb0093 (bispecific antibody, human IgG4 S228P, kappa)
heavy 1: B1 heavy 1 with Q1D, P41F, I49M, A89E, G110D, L117S
light 1: B1 light 1 with V29I, Q42E, A51T, F83V, A84G, Q100A, I106L
heavy 2: not shown
light 2: B1 light 2 with Q33N
notes: Duobody, constant domain type H (IgG4): anti-FVII(a) arm mAb0874, anti-TLT-1 arm mAb1049; also called mAb0874 x mAb1049
Kd [1]: 16.2 nM | Kd [2]: 320 nM | Stimulation (fold): FXa generated by FVIIa with lipidated TLT-1 and 100 nM biAb, relative to free FVIIa [3]: 9.6 fold

B13: mAb0004 (antibody, V domains shown)
VH: QVQLKESGPGLVAPSQSLSITCTVSGFSLTDYGVSWIRQPPGKGLEWLGVIWGGGNTYNNSALKSRLSISKDNSKSQVFLKMNSLQADDTAMYFCAKHGYYGYVMDYWGQGTSVTVSS
VL: DIVMTQSHKIMSTLVGDRVSITCKASQDVDPAVAWYQQKPGQYPKLLIYWASTRHTGVPDRFTGSGSGTDFTLTISNVQSEDLADYFCQQYSKYPYTFGGGTKLEIK
notes: fully murine, hybridoma-derived; also called 11F19
Kd [4]: 0.16 nM | AT inhibition (kinh %) [5]: 24% | TGT activity (% FVIIa) [5]: 75 % FVIIa

B14: mAb0018 (antibody, V domains shown)
VH: QITLKESGPGILKPSQTLSLTCSFSGFSLSTSGLGVGWIRQTSGKGLEWLAHIWWDDDKYYYPPLKSQLTISKDTSRNQVFLKITSVDTADTATYYCARRAFYDGYYGPMEYWGQGTSVTVSS
VL: DIVLSQSPSSLAVSVGEKVTMSCKSSQSLLYSSNQKNSLAWYQHKPGQSPKLLIYWASTRESGVPDRFTGSGSGTDFTLTISNVKAEDLAVYYCHQYYNYLLTFGPGTKLELK
notes: fully murine, hybridoma-derived; also called 8F19
Kd [4]: 9.3 nM | AT inhibition (kinh %) [5]: 525% | TGT activity (% FVIIa) [5]: 141 % FVIIa
